Changes are numbered by the printed parent chain.
T1: hCD131-Fc (IME021, inhouse) (human, UniProt P32927 17-443, limits assumed)
T1 construct: also called soluble CD131 subunit of hetero-EPOR; not shown: Fc
T1 sequence (looked up): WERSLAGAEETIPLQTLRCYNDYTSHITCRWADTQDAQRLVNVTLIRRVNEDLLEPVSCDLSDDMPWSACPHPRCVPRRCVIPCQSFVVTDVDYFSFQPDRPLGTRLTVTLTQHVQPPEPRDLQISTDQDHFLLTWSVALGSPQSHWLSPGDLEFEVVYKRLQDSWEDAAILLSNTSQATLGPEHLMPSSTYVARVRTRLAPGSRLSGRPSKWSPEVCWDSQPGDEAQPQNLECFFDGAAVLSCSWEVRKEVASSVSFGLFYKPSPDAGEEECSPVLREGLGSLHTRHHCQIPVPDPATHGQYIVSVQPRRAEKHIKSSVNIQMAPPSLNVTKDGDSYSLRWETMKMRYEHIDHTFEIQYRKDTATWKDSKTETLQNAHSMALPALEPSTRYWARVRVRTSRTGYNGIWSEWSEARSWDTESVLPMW

T2: human CD131 on 293T/CD131 cells (human, UniProt P32927 17-897)
T2 construct: whole, on cells; also called hCD131
T2 sequence (looked up): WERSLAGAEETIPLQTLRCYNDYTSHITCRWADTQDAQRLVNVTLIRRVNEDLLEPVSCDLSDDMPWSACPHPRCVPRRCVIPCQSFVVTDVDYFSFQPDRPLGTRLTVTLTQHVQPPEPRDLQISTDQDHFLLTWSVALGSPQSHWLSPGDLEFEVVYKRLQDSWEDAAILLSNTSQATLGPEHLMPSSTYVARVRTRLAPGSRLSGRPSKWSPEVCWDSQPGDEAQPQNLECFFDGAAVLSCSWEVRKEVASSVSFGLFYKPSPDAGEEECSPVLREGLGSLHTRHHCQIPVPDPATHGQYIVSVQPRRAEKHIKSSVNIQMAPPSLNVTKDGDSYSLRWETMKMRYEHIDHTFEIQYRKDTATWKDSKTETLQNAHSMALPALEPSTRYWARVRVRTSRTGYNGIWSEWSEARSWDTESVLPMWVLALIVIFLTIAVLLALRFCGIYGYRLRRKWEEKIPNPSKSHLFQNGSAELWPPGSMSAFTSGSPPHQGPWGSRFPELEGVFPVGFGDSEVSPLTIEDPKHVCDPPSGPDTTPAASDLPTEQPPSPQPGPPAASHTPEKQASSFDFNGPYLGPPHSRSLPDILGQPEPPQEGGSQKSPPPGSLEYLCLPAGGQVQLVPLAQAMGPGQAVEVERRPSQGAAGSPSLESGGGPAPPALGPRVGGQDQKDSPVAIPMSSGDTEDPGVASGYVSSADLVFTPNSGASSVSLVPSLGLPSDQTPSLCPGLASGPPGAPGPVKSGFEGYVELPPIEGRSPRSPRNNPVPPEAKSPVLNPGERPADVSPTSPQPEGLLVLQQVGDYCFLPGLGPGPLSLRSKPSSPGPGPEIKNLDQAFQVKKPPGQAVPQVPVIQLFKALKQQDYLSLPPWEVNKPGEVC

T3: soluble hetero-EPOR (EPOR-CD131-Fc) (human, UniProt P19235 25-250; P32927 17-443)
T3 construct: extracellular domain; also called soluble EPOR-CD131-Fc; not shown: human Fc (captured by anti-human Fc)
T3 sequence (looked up) 1: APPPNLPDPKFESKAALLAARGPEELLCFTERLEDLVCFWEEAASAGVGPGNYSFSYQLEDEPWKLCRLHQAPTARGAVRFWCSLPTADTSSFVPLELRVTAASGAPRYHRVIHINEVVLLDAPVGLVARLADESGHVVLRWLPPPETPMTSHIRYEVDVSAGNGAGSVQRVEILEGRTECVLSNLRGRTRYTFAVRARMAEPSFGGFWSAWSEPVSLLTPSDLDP
T3 sequence (looked up) 2: T1 sequence (looked up)

B1: hybridoma clone M26 (antibody, V domains shown)
VH: QVQLVQSGVEVKKPGASVKVSCKASGYAFSNNDISWVRQAPGQGLEWMAWITTSNGNTNYAPKLQGRVTMTTDTSTSTAYMELRSLKSDDTAVYYCARGGRTGYFDYWGQGTLVTVSS
VL: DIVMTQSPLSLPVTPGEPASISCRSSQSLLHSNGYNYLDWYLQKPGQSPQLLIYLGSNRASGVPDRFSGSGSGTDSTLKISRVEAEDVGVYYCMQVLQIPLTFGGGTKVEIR
notes: Hybridoma from ATX-GK mice; also called EPORab - M26
B2: hybridoma clone M41 (antibody, V domains shown)
VH: QVQLVESGGGLVQPGRSLRLSCAASGFTFDDYAIHWVRQAPGKGLEWVSGISYNSENIGYADSVKGRFTISRDNAKNSLYLQMNSLRSEDTALYYCAKDMFLTWFSSFDYWGQGTLVTVSS
VL: ETKLTQSPGTLSLSPGERTTLSCRASQSISNNYLAWYQQKPGQAPRLLIYRASTRATGIPDRFSGSGSGTDFTLTIRRLEPEDFAVYYCQRYGRSPLTFGGGTKVEIK
notes: Hybridoma from ATX-GK mice; tested as supernatant (BLI) and purified (cell staining, Stat5 assay); also called EPORab - M41
B3: hybridoma clone M2 (antibody, V domains shown)
VH: QVQLVESGGGLVKPGGSLRLSCAASGFTFSDSYMSWIRQAPGKGLEWVSYISNSGSYMYYADSVKGRFTISRDNAKNSLYLQMNNLRAEDTAVYYCARDKLGIGDYWGQGTLVTVSS
VL: DIQMTQSPSSLSASVGDRVTITCRASQGIRNDLGWFQQKPGKAPKRLIYAASRLQSGVPSRFSGSGSGTEFTLTISSLQPEDFATYCCLQHHTYPPTFGQGTKVEIK
notes: Hybridoma from ATX-GK mice; tested as supernatant (BLI) and purified (cell staining, Stat5 assay); also called EPORab - M2
B4: EPORab - M24 (antibody, V domains shown)
VH: EVQLVESGGGLVKPGGSLRLSCAASGFTFTNAWMNWVRQAPGKGLEWIGRIKSKTAGETTDYAAPVKGRFTISRDDSKNTLYLQMNSLKTEDTAVYYCTTDPDYGDPYYYYYFMDVWGKGTTVTVSS
VL: DIQMTQSPSSLSASIGDRVTISCRASQSISSYLNWYQQKPGKAPKLLIYGASSLQSGVPSRFSGSGSGTDFTLTISSLQPEDFATYYCQQSYSLPLTFGGGTKVEIK
notes: hybridoma supernatant, ATX-GK mouse; also called hybridoma clone M24
B5: EPORab - M9 (antibody, V domains shown)
VH: QVQLQESGPGLVKPSQTLSLTCDISGDSVSSNSAAWNWIRQSPSRGLEWLGRTYYRSKWYNDYAVAVKSRITINPDTSKNQFSLQLNSVTPEDTAVYYCARESSGWYEDYYYYYMDVWGKGTTVTVSS
VL: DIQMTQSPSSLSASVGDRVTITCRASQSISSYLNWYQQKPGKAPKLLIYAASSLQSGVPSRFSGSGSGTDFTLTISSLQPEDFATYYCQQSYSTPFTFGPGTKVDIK
notes: hybridoma supernatant, ATX-GK mouse; also called hybridoma clone M9
B6: EPORab - M19 (antibody, V domains shown)
VH: QLQLQESGPGLVKPSETLSLTCTVSGGSISSSNHYWGWIRQPPGKGLEWIGTLYYSGSTYYEPSLKSRVTISVDTSMNQFSLNLSSVTATDTAVYNCARGDRYGPFDYWGQGTLVTVSS
VL: DIVMTQSPSSLSASVGDRVTITCRASQGIRDDLGWYQQKPEKAPKRLICAASSLQSGVPSRFSGSGSGTEFTLTISSLQPEDFATYYCLQYNRYPWTFGQGTKVEIK
notes: hybridoma supernatant, ATX-GK mouse; also called hybridoma clone M19
B7: EPORab - M80 (antibody, V domains shown)
VH: B3 VH
VL: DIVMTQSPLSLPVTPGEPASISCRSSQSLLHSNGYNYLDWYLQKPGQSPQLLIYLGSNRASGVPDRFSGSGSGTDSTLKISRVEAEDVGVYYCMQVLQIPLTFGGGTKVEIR
notes: hybridoma supernatant, ATX-GK mouse; printed VH equals that of M2; also called hybridoma clone M80
B8: EPORab - M26 (antibody, V domains shown)
VH: B1 VH
VL: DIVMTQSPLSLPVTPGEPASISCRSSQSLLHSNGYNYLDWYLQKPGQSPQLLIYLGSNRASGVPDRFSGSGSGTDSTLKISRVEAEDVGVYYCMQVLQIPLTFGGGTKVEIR
notes: hybridoma supernatant, ATX-GK mouse; also called hybridoma clone M26
B9: EPORab - M38 (antibody, V domains shown)
VH: QVQLVESGGGVVQPGRSLRLSCAASGFTFSSYGMHWVRQAPGKGLEWVAFIWYDGRNKNYVDSVKGRFTISRDNSKNTLYLQMNSLRAEDTAVYYCARDRGDYVFDYWGQGTLVTVSS
VL: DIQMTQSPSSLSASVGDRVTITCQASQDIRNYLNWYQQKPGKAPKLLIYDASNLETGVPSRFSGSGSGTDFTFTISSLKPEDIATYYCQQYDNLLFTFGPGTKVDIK
notes: hybridoma supernatant, ATX-GK mouse; also called hybridoma clone M38
B10: EPORab - M41 (antibody, V domains shown)
VH: B2 VH
VL: B2 VL
notes: hybridoma supernatant, ATX-GK mouse; also called hybridoma clone M41
B11: EPORab - M37 (antibody, V domains shown)
VH: QVQLQESGPGLVKPSGTLSLTCAVSGGSITTNNWWSWVRQSPGKGLEWIGEIYHSGNTNYNPSLKSRVTMSVDKSKNQFSLNLNSVIVADTAVYYCASALGTYYGAFDTWGQGTMVTVSA
VL: DIQMTQSPSSLSASVGDRVTITCRASQSISNYLNWYQQKPGKAPKLLIYAASSLQSGVPSRFSGSGSGTDFTLTISSLQPEDFTTYYCQQSYGTPYTFGQGAKLQIK
notes: hybridoma supernatant, ATX-GK mouse; also called hybridoma clone M37
B12: EPORab - M43 (antibody, V domains shown)
VH: QVQLQESGPGLVKPSGTLSLTCAVSGGSISSSNWWSWVRQPPGKGLEWIGEIYHSGSINYNPSLKSRVTISVDKSKNQFSLKLTSVTAADTAVYYCASALGNYYGAFDLWGQGTMVTVSS
VL: B11 VL with Q3V, S28T, N31S, Y49C, S56G, T84A, T85P, G93S, A102T, Q105E
notes: hybridoma supernatant, ATX-GK mouse; also called hybridoma clone M43
B13: EPORab - M1 (antibody, V domains shown)
VH: QVQLQESGPGLVKPSQTLSLTCTVSGGSISSGGYYWSWIRQHPGKGLEWIGNIYYSGNPYYNPSLKSRLIISVDTSKNQFSLRLNSVTAADTAVYYCATFYYGSGSYYNEDYWGQGTLVTVSS
VL: B3 VL with N31I, F36Y, R53S, Q55K, A84T, C87F, H92N, T93S, P96Y, V104L
notes: hybridoma supernatant, ATX-GK mouse; also called hybridoma clone M1
B14: EPORab - M52 (antibody, V domains shown)
VH: QLQLQESGPGLAKPSETLSLTCTVSGVSISSNSYYWGWIRQPPGKGLEWIGNIYHSGRTYYNPSLRSRVTISVDTSKNQFSLKLNSVTAADTAVYYCARGYSYGAFDYWGQGTLVTVSS
VL: B3 VL with F36Y, R53S, V58I, C87Y, H92N, T93N, P96W
notes: hybridoma supernatant, ATX-GK mouse; also called hybridoma clone M52
B15: EPORab - M2 (antibody, V domains shown)
VH: B3 VH
VL: B3 VL
notes: hybridoma supernatant, ATX-GK mouse; also called hybridoma clone M2
B16: EPORab - M87 (antibody, V domains shown)
VH: QVQLVQSGAEVKKPGASMKVSCKASGYTFTQNHISWVRQAPGQGLEWMGWISAYSGNTNYAWKFQGRVTMTTDTSTNTAYMELRSLRSDDTAVYYCARDRGNWNDFAYWGRGTLVTVSS
VL: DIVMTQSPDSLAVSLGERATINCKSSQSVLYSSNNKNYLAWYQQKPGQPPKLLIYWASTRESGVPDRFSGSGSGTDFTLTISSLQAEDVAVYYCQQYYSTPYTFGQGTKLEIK
notes: hybridoma supernatant, ATX-GK mouse; also called hybridoma clone M87
B17: EPORab - M54 (antibody, V domains shown)
VH: QLQLQESGPGLVKPSETLSLTCSVSGGSISSSGYYWGWIRQPPGKGLDWIGTIYYSGNTNYNPSLNSRVTISVDTSRNQFSLKLRSVTAADTAVYYCARGYSYGPFDYWGQGTLVTVSS
VL: EIVMTQSPATLSVSPGERATLSCRASQSVSSNLAWYQLKPGQAPRLLIYGASTRATGIPARFSGSGSGTEFTLTISSLQSEDFAVYYCHPYNNWPLTFGGGTKVEIK
notes: hybridoma supernatant, ATX-GK mouse; also called hybridoma clone M54
B18: EPORab - M71 (antibody, V domains shown)
VH: QVQLVESGAEVKKPRASVKVSCKTSGYTFTRHYMHWVRQAPGQGLEWMGIINPNNNSTSYAQKFQGRITMTRDTSTSTVYMELSSLRSEDTAVYYCARFRIVGTTLYFDYWGQGTLVTVSS
VL: B17 VL
notes: hybridoma supernatant, ATX-GK mouse; also called hybridoma clone M71

What follows are binders tested against T1, hCD131-Fc (IME021, inhouse) (assay: Octet BLI, antibody from supernatant captured on anti-mouse Fc biosensors, 30 nM soluble receptor Fc fusion).
B1: binds.

The binders below were run against T2, human CD131 on 293T/CD131 cells (assay: flow cytometry on 293T/CD131 cells, purified antibody, PE labeled secondary antibody).
B2: no binding.
B3: no binding.

Each binder was assayed against T3, soluble hetero-EPOR (EPOR-CD131-Fc) (assay: Octet BLI, EPOR-CD131-Fc on anti-human Fc sensor, 10 nM EPO +/- hybridoma supernatant; competitor EPO).
In the case of B4, the “% Inhibition” value is reported as 9.5%.
With B5 the “% Inhibition” value was 18.1%.
In the case of B6, the “% Inhibition” value is reported as 10.4%.
For B7, the “% Inhibition” value was -1.8%.
With B8 the “% Inhibition” value was 31.3%.
B9 was tested, and the “% Inhibition” value was 0.5%.
For B10, the “% Inhibition” value was 18.7%.
With B11 the “% Inhibition” value was -7.1%.
In the case of B12, the “% Inhibition” value is reported as -11.4%.
B13 was tested, and the “% Inhibition” value was 31.2%.
For B14, the “% Inhibition” value was 7.4%.
B15 was tested, and the “% Inhibition” value was 93.6%.
B16 was tested, and the “% Inhibition” value was 11.5%.
In the case of B17, the “% Inhibition” value is reported as 16%.
B18 was tested, and the “% Inhibition” value was 0.1%.
